Laboratory results as given in paper PMC3406077 (2012).

B1: wild-type full-length (C24-P237) pallilysin [Treponema pallidum subsp. pallidum (Nichols strain)] / plasminogen-depleted human fibrinogen [human] (parent complex)
chain 1: CFQHGHVPPRRIPPHDTFGALPTAALPSNARDTAAHPSDTADNTSGSSTTTDPRSHGNAPPAPVGGAAQTHTQPPVQTAMRIALWNRATHGEQGALQHLLAGLWIQTEISPNSGDIHPLLFFDREHAEITFSRASVQEIFLVDSAHTHRKTVSFLTRNTAISSIRRRLEVTFESHEVIHVRAVEDVARLKIGSTSMWDGQYTRYHAGPASAPSP
chain 2: ADSGEGDFLAEGGGVRGPRVVERHQSACKDSDWPFCSDEDWNYKCPSGCRMKGLIDEVNQDFTNRINKLKNSLFEYQKNNKDSHSLTTNIMEILRGDFSSANNRDNTYNRVSEDLRSRIEVLKRKVIEKVQHIQLLQKNVRAQLVDMKRLEVDIDIKIRSCRGSCSRALAREVDLKDYEDQQKQLEQVIAKDLLPSRDRQHLPLIKMKPVPDLVPGNFKSQLQKVPPEWKALTDMPQMRMELERPGGNEITRGGSTSYGTGSETESPRNPSSAGSWNSGSSGPGSTGNRNPGSSGTGGTATWKPGSSGPGSTGSWNSGSSGTGSTGNQNPGSPRPGSTGTWNPGSSERGSAGHWTSESSVSGSTGQWHSESGSFRPDSPGSGNARPNNPDWGTFEEVSGNVSPGTRREYHTEKLVTSKGDKELRTGKEKVTSGSTTTTRRSCSKTVTKTVIGPDGHKEVTKEVVTSEDGSDCPEAMDLGTLSGIGTLDGFRHRHPDEAAFFDTASTGKTFPGFFSPMLGEFVSETESRGSESGIFTNTKESSSHHPGIAEFPSRGKSSSYSKQFTSSTSYNRGDSTFESKSYKMADEAGSEADHEGTHSTKRGHAKSRPVRGIHTSPLGKPSLSP
chain 3: QGVNDNEEGFFSARGHRPLDKKREEAPSLRPAPPPISGGGYRARPAKAAATQKKVERKAPDAGGCLHADPDLGVLCPTGCQLQEALLQQERPIRNSVDELNNNVEAVSQTSSSSFQYMYLLKDLWQKRQKQVKDNENVVNEYSSELEKHQLYIDETVNSNIPTNLRVLRSILENLRSKIQKLESDVSAQMEYCRTPCTVSCNIPVVSGKECEEIIRKGGETSEMYLIQPDSSVKPYRVYCDMNTENGGWTVIQNRQDGSVDFGRKWDPYKQGFGNVATNTDGKNYCGLPGEYWLGNDKISQLTRMGPTELLIEMEDWKGDKVKAHYGGFTVQNEANKYQISVNKYRGTAGNALMDGASQLMGENRTMTIHNGMFFSTYDRDNDGWLTSDPRKQCSKEDGGGWWYNRCHAANPNGRYYWGGQYTWDMAKHGTDDGVVWMNWKGSWYSMRKMSMKIRPFFPQQ
chain 4: YVATRDNCCILDERFGSYCPTTCGIADFLSTYQTKVDKDLQSLEDILHQVENKTSEVKQLIKAIQLTYNPDESSKPNMIDAATLKSRKMLEEIMKYEASILTHDSSIRYLQEIYNSNNQKIVNLKEKVAQLEAQCQEPCKDTVQIHDITGKDCQDIANKGAKQSGLYFIKPLKANQQFLVYCEIDGSGNGWTVFQKRLDGSVDFKKNWIQYKEGFGHLSPTGTTEFWLGNEKIHLISTQSAIPYALRVELEDWNGRTSTADYAMFKVGPEADKYRLTYAYFAGGDAGDAFDGFDFGDDPSDKFFTSHNGMQFSTWDNDNDKFEGNCAEQDGSGWWMNKCHAGHLNGVYYQGGTYSKASTPNGYDNGIIWATWKTRWYSMKKTTMKIIPFNRLTIGEGQQHHLGGAKQAGDV

Variants of: B1
Assay: ELISA; 20 µg protein per well; fibrinogen 0.5 µg per well; parent: 3.2; read off a plot

Q: chain 1 CFQHGHVPPRRIPPHDTFGALPTAALPSNARDTAAHPSDTADNTSGSSTTTDPRSHGNAPPAPVGGAAQTHTQPPVQTAMRIALWNRATHGEQGALQHLLAGLWIQTEISPNSGDIHPLLFFDREHAEITFSRASVQEIFLVDSAHTHRKTVSFLTRNTAISSIRRRLEVTFESHEVIAVRAVEDVARLKIGSTSMWDGQYTRYHAGPASAPSP [chain 1 H179A] was tested. Which response did it give?
A: ~3.1 O.D. (492 nm)

Q: chain 1 CFQHGHVPPRRIPPHDTFGALPTAALPSNARDTAAHPSDTADNTSGSSTTTDPRSHGNAPPAPVGGAAQTHTQPPVQTAMRIALWNRATHGEQGALQHLLAGLWIQTEISPNSGDIHPLLFFDREHAEITFSRASVQEIFLVDSAHTHRKTVSFLTRNTAISSIRRRLEVTFESHAVIHVRAVEDVARLKIGSTSMWDGQYTRYHAGPASAPSP [chain 1 E176A] was tested. Which response did it give?
A: ~3.5 O.D. (492 nm)

Q: Which response does the source give for chain 1 CFQHGHVPPRRIPPHDTFGALPTAALPSNARDTAAHPSDTADNTSGSSTTTDPRSHGNAPPAPVGGAAQTHTQPPVQTAMRIALWNRATHGEQGALQHLLAGLWIQTEISPNSGDIHPLLFFDREHAEITFSRASVQEIFLVDSAHTHRKTVSFLTRNTAISSIRRRLEVTFESAEVIHVRAVEDVARLKIGSTSMWDGQYTRYHAGPASAPSP [chain 1 H175A] here?
A: ~3.5 O.D. (492 nm)
